Measured values taken from patent US10251952B2, “Humanized anti-tau(pS422) antibody brain shuttles and use thereof” (Hoffmann-La Roche Inc., priority 2014, dated 2019).
Substitutions are numbered along the chain they refer to. Read-outs that look alike come from different tables or passages of the source.

B1: VH00/VL00: rabbit antibody reference (parent of humanized variants, from mAb 086); VH SEQ ID NO: 11, VL SEQ ID NO: 07 (antibody, listed as Oryctolagus cuniculus, V domains shown)
VH: QSVEESGGRLVTPGTPLTLTCTVSGFSLSSNAINWVRQAPGKGLEWIGYIAVSGNTYYASWAKGRFTISKASTTVDLKMTSPTAEDTGTYFCGKSNIWGPGTLVTVSL
VL: AQVLTQTTSPVSAAVGSTVTISCQSSQSVRTNKLAWFQQKPGQPPKRLIYSASTLDFGVPSRFSASGSGTQFTLTISDVQCDDAATYYCLGYFDCSIADCVAFGGGTEVVVK
B2: VH32/VL21: humanized anti-human tau(pS422) antibody; VH SEQ ID NO: 19, VL SEQ ID NO: 16 (antibody, V domains shown)
VH: EVQVLESGGGLVQPGGSLRLSCAVSGFSLSSNAINWVRQAPGKGLEWVGYIAVSGNTYYASWAKGRFTISRDNSKNTVYLQMNSLRAEDTAVYYCGKSNIWGQGTLVTVSS
VL: AQVMTQSPSSLSASVGDRVTITCRSSQSVRTNKLAWFQQKPGQPPKRLIYSASTLDFGVPSRFSGSGSGTEFTLTISSLQPEDFATYYCLGYFDSSADIVAFGGGTKVEIK
modifications: humanized sequence
B3: VH32/VL22: humanized anti-human tau(pS422) antibody; VH SEQ ID NO: 19, VL SEQ ID NO: 17 (antibody, V domains shown)
VH: B2 VH
VL: B2 VL with K33R, F57Y
modifications: humanized sequence
B4: VL17 with VH04: anti-human tau(pS422) antibody; VH SEQ ID NO: 49, VL SEQ ID NO: 37 (antibody, V domains shown)
VH: QSVLESGGGLVQPGGSLRLSCAVSGFSLSSNAINWVRQAPGKGLEWVGYIAVSGNTYYASWAKGRFTISRDSTTLYLQMNSLRAEDTAVYYCGKSNIWGPGTLVTVSS
VL: DIQMTQSPSSLSASVGDRVTITCRSSQSVRTNKLAWFQQKPGQPPKRLIYSASTLDFGVPSRFSGSGSGTEFTLTISSLQPEDFATYYCLGYFDCSIADCVAFGGGTKVEIK
modifications: humanized sequence
B5: VL17 with VH15: anti-human tau(pS422) antibody; VH SEQ ID NO: 51, VL SEQ ID NO: 37 (antibody, V domains shown)
VH: QSVVESGGGLVQPGGSLRLSCAASGFSLSSNAINWVRQAPGKGLEWVGYIAVSGNTYYASWAKGRFTISRDNSKNTLYLQMNSLRAEDTAVYYCGKSNIWGPGTLVTVSS
VL: B4 VL
modifications: humanized sequence

How the values were obtained:
human tau(pS422) [1] = molecular target: T1, human tau(pS422) (Homo sapiens, UniProt P10636, S739X); assay: BIAcore kinetic screening and kinetic rates of humanized VH/VL combinations; assay type: binding; details: for MR: molar ratio; for BIAcore: summary grading 1 to 4, key not given; for kd / t/2 diss: VL17 or VL19 with VH variants
Protocol: In the following Table characteristics of the different humanized variants of the rabbit light chain variable domain in combination with the humanized heavy chain variable domains VH14 and VH20, respectively, are shown. Binding partner was human tau(pS422).
Kinetic screening was performed according to Schraeml et al. (Schraeml, M. and M. Biehl, Methods Mol. Biol. 901 (2012) 171-181) on a BIAcore 4000 instrument, mounted with a BIAcore CM5 sensor. The BIAcore 4000 instrument was under the control of the software version V1.1. A BIAcore CM5 series S chip was mounted into the instrument and was hydrodynamically addressed and preconditioned according to the manufacturer's instructions. The instrument buffer was HBS-EP buffer (10 mM HEPES (pH 7.4), 150 mM NaCl, 1 mM EDTA, 0.05% (w/v) P20). An antibody capture system was prepared on the sensor surface. A polyclonal goat anti-human antibody with human IgG-Fc specificity (Jackson Lab.) was immobilized at 30 μg/ml in 10 mM sodium acetate buffer (pH 5) to spots 1, 2, 4 and 5 in the instrument's flow cells 1, 2, 3 and 4 at 10,000 RU using NHS/EDC chemistry. In each flow cell the antibodies were captured on spot 1 and spot 5. Spot 2 and spot 4 were used as reference spots. The sensor was deactivated with a 1 M ethanolamine solution. Humanized antibody derivatives were applied at concentrations between 44 nM and 70 nM in instrument buffer supplemented with 1 mg/ml CMD (carboxymethyldextrane). The antibodies were injected at a flow rate of 30 μl/min for 2 minutes. The capture level (CL) of the surface-presented antibodies was measured in rel. response units (RU). The analytes in solution, phosphorylated human tau protein, non-phosphorylated human tau protein and the phosphorylated human tau mutant protein T422S were injected at 300 nM for 3 minutes at a flow rate of 30 μl/minute. The dissociation was monitored for 5 minutes. The capture system was regenerated by a 1 minute injection of 10 mM glycine buffer, pH 1.7 at 30 μL/minute over all flow cells. Two report points, the recorded signal shortly before the end of the analyte injection, denoted as binding late (BL) and the recorded signal shortly before the end of the dissociation time, stability late (SL), were used to characterize the kinetic screening performance. Furthermore, the dissociation rate constant kd (1/s) was calculated according to a Langmuir model and the antibody/antigen complex half-life was calculated in minutes according to the formula ln(2)/(60*kd). The molar ratio (MR) was calculated according to the formula MR=(Binding Late (RU))/(Capture level (RU))*(MW(antibody)/(MW(antigen)). In case the sensor was configured with a suitable amount of antibody ligand capture level, each antibody should be able to functionally bind at least to one analyte in solution, which is represented by a molar ratio of MR=1.0. Then, the molar ratio is also an indicator for the valence mode of analyte binding. The maximum valence can be MR=2 for an antibody binding two analytes, one with each Fab valence.
In another embodiment, kinetic rates were determined at 25° C. and 37° C. using the same experimental setup, but using multiple concentration series of each analyte in solution at 0 nM (buffer), 1.2 nM, 3.7 nM, 11.1 nM, 33.3 nM, 100 nM and 300 nM. From the concentration-dependent binding behavior the kinetic data was calculated using the BIAcore evaluation software according to the manufacturer's instructions and a Langmuir 1.1 model with RMAX global.

[2] = molecular target: T2, S422A tau mutant S422A SEQ ID NO: 01 (Homo sapiens, UniProt P10636, S739A); assay: ELISA binding specificity of VH/VL combinations
T2 construct: (A)=full length human tau S422A mutant
T2 sequence (P10636 1-441 isoform P10636-8 S422A): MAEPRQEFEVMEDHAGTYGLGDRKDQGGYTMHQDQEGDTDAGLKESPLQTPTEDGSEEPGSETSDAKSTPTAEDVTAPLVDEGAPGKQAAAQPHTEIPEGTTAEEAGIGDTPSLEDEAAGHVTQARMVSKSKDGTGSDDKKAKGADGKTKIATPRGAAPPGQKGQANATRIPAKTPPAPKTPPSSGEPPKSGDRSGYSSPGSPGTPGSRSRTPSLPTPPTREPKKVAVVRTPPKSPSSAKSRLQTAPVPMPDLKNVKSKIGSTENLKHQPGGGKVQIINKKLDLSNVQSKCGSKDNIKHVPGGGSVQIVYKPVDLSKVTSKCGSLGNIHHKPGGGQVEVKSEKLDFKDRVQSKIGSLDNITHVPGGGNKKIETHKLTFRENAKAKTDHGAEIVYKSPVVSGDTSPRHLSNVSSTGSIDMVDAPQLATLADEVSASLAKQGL
Protocol: (§1) In the following Table the binding specificity for different VH/VL combinations are shown (EC50 values in [ng/ml]).
(§2) Non-biotinylated peptide/protein/aggregate was added to non-coated Maxisorb plates, biotinylated peptide/protein/aggregate in PBS was added to streptavidin-coated Maxisorb plates, and plates were incubated over-night. The supernatant was discarded and the wells washed three times with 90 μl wash buffer (lx PBS/0.1% Tween 20). Remaining reactive spots were blocked with blocking buffer (lx PBS/2% BSA (Bovine Serum Albumin Fraction V, fatty acid free, Roche, Cat. No.: 10735078001)/0.05% Tween 20) by incubating for one hour. The supernatant was discarded and the wells washed three times with 90 μl wash buffer. Samples and control antibody were prepared in 12 dilutions (1:2) in ELISA buffer (lx PBS/0.5% BSA (Bovine Serum Albumin Fraction V, fatty acid free, Roche, Cat. No.: 10735078001)/0.05% Tween 20) with a start concentration of 500 ng/ml. The incubation time was 60 minutes at room temperature on a shaker. The supernatant was discarded and the wells washed three times with 90 μl wash buffer. Solutions of secondary antibody were prepared in ELISA buffer. A total of 25 μl antibody-mix was transferred to all wells of the assay plate and the plate was thereafter incubated on shaker for 60 minutes at room temperature. The supernatant was discarded and the wells were washed three times with 90 μl wash buffer. 25 μl of ABTS solution was added to all wells. The absorbance was read at 405 nm-492 nm.

[3] = molecular target: full length tau(pS422) SEQ ID NO: 02 (Homo sapiens, UniProt P10636, S739X); assay: ELISA binding specificity of VH/VL combinations
Protocol: as §1, §2

[4] = molecular target: T3, tau peptide residues 416 to 430 of SEQ ID NO: 01 (Homo sapiens, UniProt P10636); assay: ELISA binding specificity of VH/VL combinations
T3 construct: 416 to 430
Protocol: as §1, §2

tau(pS422) aggregates = tau(pS422) aggregates (Homo sapiens, UniProt P10636, S739X); assay: ELISA binding specificity of VH/VL combinations
Protocol: as §1, §2

[5] = molecular target: tau(pS422) fragment SEQ ID NO: 03 (Homo sapiens, UniProt P10636, S739X); assay: ELISA binding specificity of VH/VL combinations
Protocol: as §1, §2

[6] = molecular target: human tau phosphorylated at S422 (Homo sapiens, UniProt P10636, S739X); assay: Western Blot selectivity of humanized VH/VL combinations; assay type: binding; details: for WB: summary grading 1 to 4, key not given
Excerpt: FIG. 5 is a Western Blot showing the selectivity of selected humanized VH/VL combinations; (1)=VH00/VL00, (2)=VH32/VL21, (3)=VH20/VL22, (4)=VH32/VL22, (5)=VH33/VL22.
The sensitivity of selected humanized VH/VL combinations to the human tau mutant S422A can be seen from the Western Blots shown in FIG. 5. All humanized variants selectively bind to human tau phosphorylated at S422.

human tau(pS422) [7] = molecular target: T1, human tau(pS422); assay: IHC grading in summary of biological properties; details: key not given
Excerpt: The following table summarizes the biological properties of selected humanized VH/VL combinations.

Row | Molecule | t/2diss 25° C. (human tau(pS422) [1]; 25 °C) | Kd (human tau(pS422) [1]; 25 °C, read-out: KD 25° C.) | t/2diss 37° C. (human tau(pS422) [1]; 37 °C) | Kd (human tau(pS422) [1]; 37 °C, read-out: KD 37° C.) | MR (human tau(pS422) [1]; 25 °C) | MR (human tau(pS422) [1]; 37 °C) | EC50 S422A tau mutant S422A SEQ ID NO: 01 [2] | EC50 full length tau(pS422) SEQ ID NO: 02 [3] | EC50 tau peptide residues 416 to 430 of SEQ ID NO: 01 [4] | EC50 tau(pS422) aggregates (tau(pS422) aggregates) | EC50 tau(pS422) fragment SEQ ID NO: 03 [5] | selectivity and cross-reactivity in Western Blot ([6]; FIG. 5) | BIAcore (human tau(pS422) [1]) | WB [6] | IHC (human tau(pS422) [7]) | kd (human tau(pS422) [1]; 25 °C) | t/2 diss (human tau(pS422) [1]; 25 °C)
1 | B1 | 54 min | 8 nM | 24 min | 12 nM | 0.6 | 0.8 | 0.0479 µg/mL | 5.2 ng/ml | >1 µg/mL | 18.1 ng/ml | 6.3 ng/ml | low level x-reactivity to non-S422 phosphoepitopes | – | – | – | – | –
2 | B2 | 26 min | 18 nM | 9 min | 32 nM | 0.5 | 0.6 | 0.0215 µg/mL | 2.9 ng/ml | 0.634 µg/mL | 9.4 ng/ml | 4.4 ng/ml | – | 2 | 2 | 3 | – | –
3 | B3 | 29 min | 14 nM | 8 min | 31 nM | 0.5 | 0.6 | 0.0174 µg/mL | 3.5 ng/ml | 0.048 µg/mL | 8.3 ng/ml | 5.6 ng/ml | – | 1 | 1 | 1 | – | –
4 | B4 | – | – | – | – | – | – | – | – | – | – | – | – | – | – | – | 0.00416 s⁻¹ | 3 min
5 | B5 | – | – | – | – | – | – | – | – | – | – | – | – | – | – | – | 0.00326 s⁻¹ | 4 min
